According to patent US20110318339A1 (FABRUS, published 2011):
Numbering of substitutions follows the chain as printed. In names and notes the source's numbering stands. Each block holds one binder with its values, some of them ahead of it.

Assays:
[1] = target: T1, recombinant human DLL4 (Cat# 1506-D4/CF, R&D Systems) (human, UniProt Q9NR61 27-529); assay: ELISA, DLL4 coated, Fab 20 nM
T1 construct: Bought protein; also called hDLL4; rHuman DLL4
Description: (§1) The plate was blocked by adding 1% BSA in Tris-buffered Saline Tween (TBST) and incubating for 1 hour at room temperature followed by washing 2 times with 150 μl TBST. A Fab antibody was serially diluted in 1% BSA in PBS. A 50 μl aliquot of each serial dilution was added, in triplicate, to each well and the plate was incubated for 1 hour at room temperature followed by washing 2 times with TBST. 50 μl of either goat anti-human kappa HRP conjugated secondary antibody (Cat # A7164-1 mL, Sigma-Aldrich) or goat anti-human lambda HRP conjugated secondary antibody (Cat # L1645-1 ml, Sigma-Aldrich), diluted 1:1000 in 1% BSA in PBS, was added to each well and the plate was incubated for 30 minutes at room temperature followed by washing 3 times with 200 μl TBST. Finally, 50 μl TMB one-component reagent (Cat # TMBW-1000-01, BioFax) was added and allowed to develop for 2 minutes at room temperature. The reaction was immediately halted by the addition of 50 μl 0.5M H₂SO₄ and the absorbance at 450 nm was measured using an ELISA plate reader.

[2] = target: T1, recombinant human DLL4 (Cat# …); assay: ELISA, DLL4 coated, Fab 25 nM
Outline: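 Plates were blocked with 1% BSA/TBST; serially diluted Fab was added in triplicate for 1 h at room temperature. Detection used anti-human kappa or lambda HRP secondary (1:1000, 30 min) and TMB developed for 2 min. The reaction was stopped with H₂SO₄ and absorbance read at 450 nm.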

[3] = target: T1, recombinant human DLL4 (Cat# …); assay: ELISA, DLL4 coated, Fab 50 nM
Description: (§2) In this example, an ELISA binding assay was used to assess the dose-dependent binding of Fab antibodies to recombinant human DLL4 and recombinant mouse DLL4.
as §1

[4] = target: T1, recombinant human DLL4 (Cat# …); assay: ELISA, DLL4 coated, Fab 100 nM
Description: as §1

[5] = target: T1, recombinant human DLL4 (Cat# …); assay: ELISA, DLL4 coated, Fab 100 nM; remark: listed apart in the source
Description: as §2, §1

[6] = target: T1, recombinant human DLL4 (Cat# …); assay: ELISA, DLL4 coated, Fab 0.74 nM
Description: as §1

[7] = target: T1, recombinant human DLL4 (Cat# …); assay: ELISA, DLL4 coated, Fab 2.22 nM
Description: as §1

[8] = target: T1, recombinant human DLL4 (Cat# …); assay: ELISA, DLL4 coated, Fab 6.67 nM
Description: as §1

[9] = target: T1, recombinant human DLL4 (Cat# …); assay: ELISA, DLL4 coated, Fab 0.14 nM
Description: as §1

[10] = target: T1, recombinant human DLL4 (Cat# …); assay: ELISA, DLL4 coated, Fab 0.41 nM
Description: as §1

[11] = target: T1, recombinant human DLL4 (Cat# …); assay: ELISA, DLL4 coated, Fab 1.23 nM
Description: as §1

[12] = target: T1, recombinant human DLL4 (Cat# …); assay: ELISA, DLL4 coated, Fab 3.70 nM
Description: as §1

[13] = target: T1, recombinant human DLL4 (Cat# …); assay: ELISA, DLL4 coated, Fab 12.5 nM
Description: as §2, §1

[14] = target: T1, recombinant human DLL4 (Cat# …); assay: ELISA, DLL4 coated, Fab 11.11 nM
[15] = target: T1, recombinant human DLL4 (Cat# …); assay: ELISA, DLL4 coated, Fab 33.33 nM
Description: as §1

[16] = target: T1, recombinant human DLL4 (Cat# …); assay: SPR (ProteOn), hDLL4 amine-coupled on chip
Description: In this example, the binding affinities of selected anti-DLL4 Fabs to recombinant human DLL4 (hDLL4, Cat# 1506-D4/CF, R&D Systems) were analyzed using Surface Plasmon Resonance (SPR) (Biosensor Tools, Salt Lake City, Utah). The Fabs analyzed include germline-derived antibodies and germline-modified DLL4 antibodies. Recombinant hDLL4 was immobilized on a SPR chip using amine coupling at three different surface densities. The Fabs were serially diluted 3-fold, with an initial concentration of 1 μM. Binding studies were run on a ProteOn system using a GLM sensor chip in 10 mM HEPES, pH 7.4, 150 mM NaCl, 0.01% Tween-20, and 0.1 mg/ml BSA at 25° C. The response data from each surface was globally fit to determine the binding constants.

[17] = target: T1, recombinant human DLL4 (Cat# …); assay: ELISA, DLL4 coated, Fab 50 nM; remark: listed apart in the source
Description: as §1

[18] = target: T1, recombinant human DLL4 (Cat# …); assay: ELISA, DLL4 coated, Fab 75 nM
[19] = target: T1, recombinant human DLL4 (Cat# …); assay: ELISA, DLL4 coated, Fab 100 nM; remark: listed apart in the source

B2: Fab VH5-51_IGHD5-18*01>3_IGHJ4*01 G100K/G104T G24T/S28R/G35V & V3-4_IGLJ1*01 V91L/S96P (Fab, V domains shown)
VH: EVQLVQSGAEVKKPGESLKISCKTSGYRFTSYWIVWVRQMPGKGLEWMGIIYPGDSDTRYSPSFQGQVTISADKSISTAYLQWSSLKASDTAMYYCARRKYSYTYDYFDYWGQGTLVTVSS
VL: QTVVTQEPSFSVSPGGTVTLTCGLSSGSVSTSYYPSWYQQTPGQAPRTLIYSTNTRSSGVPDRFSGSILGNKAALTITGAQADDESDYYCLLYMGPGISYVFGTGTKVTVL
notes: Fab made in E. coli: VH on CH1 with His6 and Flag tags (Plasmid A), VL on lambda CL (Plasmid E); also called H: KT TRV & L: LP
ELISA absorbance at 450 nm [2]: 0.58 A450
ELISA absorbance at 450 nm [3]: 0.81 A450
ELISA absorbance at 450 nm [4]: 0.34 A450
ELISA absorbance at 450 nm [5]: 1 A450
ELISA absorbance at 450 nm [9]: 0.03 A450
ELISA absorbance at 450 nm [10]: 0.02 A450
ELISA absorbance at 450 nm [11]: 0.03 A450
ELISA absorbance at 450 nm [12]: 0.03 A450
ELISA absorbance at 450 nm [13]: 0.45 A450
ELISA absorbance at 450 nm [14]: 0.07 A450
ELISA absorbance at 450 nm [15]: 0.19 A450
Kd [16]: 3.3 nM
koff [16]: 0.036 s⁻¹
kon [16]: 1.1e+07 M⁻¹ s⁻¹

B3: Fab VH5-51_IGHD5-18*01>3_IGHJ4*01 G100K/G104T G24T/S28R/G35V & V3-4_IGLJ1*01 V91L/S96P S52G (Fab, V domains shown)
VH: B2 VH
VL: B2 VL with S52G
notes: Fab made in E. coli: VH on CH1 with His6 and Flag tags (Plasmid A), VL on lambda CL (Plasmid E); also called H: KT TRV & L: LP S52G
ELISA absorbance at 450 nm [2]: 0.9 A450
ELISA absorbance at 450 nm [3]: 1.02 A450
ELISA absorbance at 450 nm [4]: 0.69 A450
ELISA absorbance at 450 nm [5]: 1.14 A450
ELISA absorbance at 450 nm [9]: 0.02 A450
ELISA absorbance at 450 nm [10]: 0.01 A450
ELISA absorbance at 450 nm [11]: 0.03 A450
ELISA absorbance at 450 nm [12]: 0.06 A450
ELISA absorbance at 450 nm [13]: 0.63 A450
ELISA absorbance at 450 nm [14]: 0.17 A450
ELISA absorbance at 450 nm [15]: 0.35 A450
Kd [16]: 5 nM
koff [16]: 0.0147 s⁻¹
kon [16]: 2.96e+06 M⁻¹ s⁻¹

B4: Fab VH5-51_IGHD5-18*01>3_IGHJ4*01 G100K/G104T G24T/S28R/G35V & V3-4_IGLJ1*01 V91L/S96P S52M (Fab, V domains shown)
VH: B2 VH
VL: B2 VL with S52M
notes: Fab made in E. coli: VH on CH1 with His6 and Flag tags (Plasmid A), VL on lambda CL (Plasmid E); also called H: KT TRV & L: LP S52M
ELISA absorbance at 450 nm [2]: 0.59 A450
ELISA absorbance at 450 nm [3]: 0.8 A450
ELISA absorbance at 450 nm [4]: 0.24 A450
ELISA absorbance at 450 nm [5]: 1.01 A450
ELISA absorbance at 450 nm [9]: 0.02 A450
ELISA absorbance at 450 nm [10]: 0.03 A450
ELISA absorbance at 450 nm [11]: 0.03 A450
ELISA absorbance at 450 nm [12]: 0.03 A450
ELISA absorbance at 450 nm [13]: 0.41 A450
ELISA absorbance at 450 nm [14]: 0.06 A450
ELISA absorbance at 450 nm [15]: 0.12 A450

B7: Fab VH1-46_IGHD6-6*01_IGHJ1*01 S102A/S103P/S104F/H111F G56A & L6_IGKJ1*01 S28N/S30D/S31H (Fab, V domains shown)
VH: QVQLVQSGAEVKKPGASVKVSCKASGYTFTSYYMHWVRQAPGQGLEWMGIINPSGASTSYAQKFQGRVTMTRDTSTSTVYMELSSLRSEDTAVYYCAREEYAPFSAEYFQFWGQGTLVTVSS
VL: EIVLTQSPATLSLSPGERATLSCRASQNVDHYLAWYQQKPGQAPRLLIYDASNRATGIPARFSGSGSGTDFTLTISSLEPEDFAVYYCQQRSNWPPWTFGQGTKVEIKR
notes: Fab made in E. coli: VH on CH1 with His6 and Flag tags (Plasmid A), VL on kappa CL (Plasmid C); also called H: APFF G56A & L: NDH
ELISA absorbance at 450 nm [17]: 0.366 A450
ELISA absorbance at 450 nm [18]: 0.543 A450
ELISA absorbance at 450 nm [19]: 0.453 A450

The remaining lines, values ahead:

ELISA absorbance at 450 nm [1]: 0.054 A450
ELISA absorbance at 450 nm [2]: 0.26 A450
ELISA absorbance at 450 nm [3]: 0.32 A450
ELISA absorbance at 450 nm [4]: 0.16 A450
ELISA absorbance at 450 nm [5]: 0.45 A450
ELISA absorbance at 450 nm [6]: 0.002 A450
ELISA absorbance at 450 nm [7]: 0 A450
ELISA absorbance at 450 nm [8]: 0.023 A450
ELISA absorbance at 450 nm [9]: 0 A450
ELISA absorbance at 450 nm [10]: 0.01 A450
ELISA absorbance at 450 nm [11]: 0.01 A450
ELISA absorbance at 450 nm [12]: 0.03 A450
ELISA absorbance at 450 nm [13]: 0.23 A450
ELISA absorbance at 450 nm [14]: 0.04 A450
ELISA absorbance at 450 nm [15]: 0.08 A450
Kd [16]: 36.2 nM
koff [16]: 0.0717 s⁻¹
kon [16]: 2.09e+06 M⁻¹ s⁻¹
B1: Fab VH5-51_IGHD5-18*01>3_IGHJ4*01 G100K/G104T G24T/S28R/G35V & V3-4_IGLJ1*01 (Fab, V domains shown)
VH: B2 VH
VL: B2 VL with L91V, P96S
notes: Fab made in E. coli: VH on CH1 with His6 and Flag tags (Plasmid A), VL on lambda CL (Plasmid E); also called H: KT TRV & L: wt

ELISA absorbance at 450 nm [17]: 0.301 A450
ELISA absorbance at 450 nm [18]: 0.399 A450
ELISA absorbance at 450 nm [19]: 0.338 A450
B5: Fab VH1-46_IGHD6-6*01_IGHJ1*01 S102A/S103P/S104F/H111F G56A & L6_IGKJ1*01 (Fab, V domains shown)
VH: B7 VH
VL: not shown
notes: Fab made in E. coli: VH on CH1 with His6 and Flag tags (Plasmid A), VL on kappa CL (Plasmid C); also called H: APFF G56A & L: wt

ELISA absorbance at 450 nm [17]: 0.154 A450
ELISA absorbance at 450 nm [18]: 0.212 A450
ELISA absorbance at 450 nm [19]: 0.213 A450
B6: Fab VH1-46_IGHD6-6*01_IGHJ1*01 S102A/S103P/S104F/H111F S54A & L6_IGKJ1*01 S28N/S30D/S31H (Fab, V domains shown)
VH: B7 VH with S54A, A56G
VL: B7 VL
notes: Fab made in E. coli: VH on CH1 with His6 and Flag tags (Plasmid A), VL on kappa CL (Plasmid C); also called H: APFF S54A & L: NDH
